Measured values as given in patent publication US20230218735A1 (Pfizer, published 2023).
Numbering of substitutions follows the chain as printed.

B1: hCDIFA-5 (antibody, V domains shown)
VH: EVQLVESGPGLVKPSETLSLTCAVSGGSISGYYWSWIRQPPGKGLEWIAYIYDSGSTSHNPSLKSRVTTSVDTSKNQFSLKLNSVTAADTAVYYCARSGKWALGAFDMWGQGTMVTVSS
VL: QSALTQPPSVSGAPGQRVTISCTGSSSNIGAGYDVHWYQQLPGTAPKLLISGNNNRPSGVPDRFSGSKSGTSASLAITGLQAEDEADYYCQSYDNDLSGLVVFGGGTKLTVLG
B2: hCDIFA-24 (antibody, V domains shown)
VH: QVQLVQSGGGVVQPGRSLRLSCAASGFSFSTHGMHWVRQAPGKGLEWVAVISYDGSNKYYADSVKGRFTISRDNSKNTVYLQMNSLRAEDTAVFYCAKPRDNYYYYGMDVWGQGTTVTVSS
VL: AIRMTQSPSSLSASTGNRVTITCRASQGISSYLAWYQQKPGKAPNLLIYAASTLQSGVPSRFTGSGSGTDFTLTISRLHSENFATYYCQQYFNYPRTFGQGTRLEIKR
B3: hCDIFA-43 (antibody, V domains shown)
VH: QVQLVQSGPVLVKPTETLMLTCTVSGFSLSSAGMGVSWIRQPPGKAPEWLAHIFLSDEKSYRTSLESRLTISKDTSKSQVVLIMTNVDPADTATYYCARALKRYCTGGVCFLNWFDSWGPGTVVTVSS
VL: DIVMTQSPGTLSLSPGERATLSCRASLSIGNLYLAWYKQRPGHPPRLLIYGASSRATGTPDRFSGSGSGTDFTLTISRLEPEDFVVYYCQQYKTSPWTFGQGTKVEIKR
B4: hCDIFA-54 (antibody, V domains shown)
VH: QVQLVESGAEVKKPGASVKVSCKASGYTFTSYDINWVRQATGQGLEWMGWMNPNSGNTGYAQKFQGRVTMTRNTSISTAYMELSSLRSEDTAVYYCARGGPNSGSFSHWFDPWGQGTLVTVSS
VL: QAVVTQPPSASASLGASVTLTCTLSSGYSNYKVDWYQQRPGKGPRFVMRVGTGGIVGSKGDGIPDRFSVLGSGLNRYLTIKNIQEDDESDYHCGADHGSGSNFAVVFGGGTKLTVLG
B5: hCDIFA-6 (antibody, V domains shown)
VH: QVQLQESGPGLVKPSQTLSLTCSVSGDSSSSGDYYWNWIRQPAGKGLEWIGYIYTSGSTNYNPSLKSRVTISEDTSKKQFSLKLTSVTAADTAVYYCARGIVGVGLDYWGQGTLVTVSS
VL: EIVMTQSPSTLSASVGDRVTITCRASQTISSWLAWYQQKPGRAPKLLMSKTSTLQPGVPSRFSGSGSGTEFTLTISGLQPDDVATYYCHHYNSWPFGPGTKVEIKR
B6: hCDIFA-49 (antibody, V domains shown)
VH: QVQLQESGPRLLEPSETLSLSCTVSGGSITSYYWGWIRQSPGKGLQWIGHIDSSGNTNYNYNSSLMNRVTISVVTSKNQFSLKLTSVTPADSAVYYCARVYLFYFGQSKWEYFDSWGQGTLVTVSS
VL: QSALTQPPSVSGAPGQRVTISCTGSDSNIGTDYDVHWYKQVPGAAPKLLIYGINNRPSGVPDRFSGSKSGTSASLAITGLQAEDEGDYYCQSYDIRPSGSVVFGGGTKLTVLG
B7: hCDIFA-50 (antibody, V domains shown)
VH: QVQLVQSGTEVKKPGASVKVSCKASGYTFTNYGISWVRQAPGQGLEWMGWISGNNGHTNYAQNLQGRVTMTTDTSTSTAYMELRSLRSDDTAVYYCARVTRWFGELLGDYWGQGTLVTVSS
VL: QTVVTQEPSLTVSPGGTVTLTCASSTGAVTSGFLPNWFQQKPGQAPRALIYNTNNKHSWTPARFSGSLLGGKAALTLSGVQPEDEAEYYCLLYFDDAQVQVFGGGTKLTVLG
B8: hCDIFA-59 (antibody, V domains shown)
VH: QVQLVESGGGLVQPGRSLRLSCRTSGFTFGDFALSWVRQAPGKGLEWVGYIRSKTFGGTTEYAASVKGRFTMSRDDSKSIAYLQMNSLKTEDTAVYFCTRASYGAFDYWGQGTLVTVSS
VL: DIVMTQSPSSLSASVGDTVTITCRAGQNIATYLHWYQQKPGKAPNLLIYDARTLQSGVPSRFSGSGSGTDFTLTINSLQPEDFATYYCQQSYNTPWTFGQGTKVEIKR
B9: hCDIFA-36 (antibody, V domains shown)
VH: QVQLVQSGGGLVQPGRSLRLSCAASGFAFDDYALHWVRQVPGKGLEWVSGISWNSDSIAYADSVKGRFTISRDNAKNSLYLQMNGLRAEDTALYYCAKDRTIASAGIPDEFQHWGQGTLVTVSS
VL: DIVMTQSPATLSVSPGERATLSCRASQSVSYKVAWYQQKPGQAPRLLIYGASTRDTGIPARFSGSGSGTDFTLTISSLQSEDSAVYYCQQYSNWPTTFGQGTKVEIKR
B10: hCDIFA-47 (antibody, V domains shown)
VH: QVQLQESGAEVKKPGSSVKVSCQASGGTFSNYAFNWVRQAPGQGLEWMGRTIPIVGLVNYAQNFQGRITFSADKSTSTAYMEVNSLRSDDTAVYYCARAEYPLNCTRGNCDVGTSYHYYYGMGVWGRGTTVTVSS
VL: EIVMTQSPATLSVSPGERATLSCRASQSISSNLAWFQQKPGQAPRLLIHGASTRATGIPVRFSGSGSGTEFTLTISSLQFGDSAVYYCQQYYNWRYTFGQGTKLEIKR
B11: hCDIFA-51 (antibody, V domains shown)
VH: EVQLLESGGGVVQPGRSLRLSCAASGFTFSNYGMHWVRQAPGKGLEWVAVIWYDGSNKYYADSVKGRFTISRDNSKNMVYLQMNSLRGADTAVYYCAGDRHLGLWGYYYYYYAMDVWGQGTTVTVSS
VL: QAVVTQPPSVSAAPGQRVTISCSGSSSNIGKNYVSWYQHLPGTAPKLLIYESNKRPSGIPDRFSGSKSGTSATLGITGLQTGDEADYYCGTWDSSLSAGLFGGGTKVTVLG
B12: hCDIFA-41 (antibody, V domains shown)
VH: QVQLQESGPGLVKPSQTLSLTCTVSGDSISSNQYYWTWIRQPAGKGLEWIGQIESAYFTNYNPSLKGRVTISGDASKNVLSLTLTSVTAADTALYWCAREAGGGLGYCTGGRCQFSGYYYYGLDVWGQGTTVTVSS
VL: QSALTQPPSVSAAPGQTVTISCSGSHSNIGNNYVSWYQQLPGTAPRRLIYDTDKRPSGIPDRFSGSKSGTSATLVITGLRAGDEADYYCGTWDGSLSAGVFGGGTKLTVLG
B13: hCDIFA-4 (antibody, V domains shown)
VH: QVQLQESGPGLVKPSGTLSLTCAVSGGSISSINWWSWVRQPPGKGLEWIGEIYHSGSTNYNPSLKSRVTISVDKSKNQFSLKLSSVTAADTAVYYCAREGKVDSSSQGNWFDPWGQGTLVTVSS
VL: QPVLTQPRSVSGSPGQSVTISCTGTSSDVGGYNYVSWYQQHPGKAPKFMIYDVSKRPSGVPDRFSGSKSGNTASLTISGLQAEDEADYYCCSYAGTYTFYVFGTGTKVTVLG
B14: hCDIFA-15 (antibody, V domains shown)
VH: QVQLVQSGAEVKKPGASVKISCKASGYTFVRYYMHWVRQAPGQGLEWMGLIDPSGGSTRYAQRFQGRVTMTRDTSTSTVYMELSGLRSEDTAVYYCARDGPFGGLSGGNWFDPWGQGTLVTVSS
VL: AIRMTQSPGTLSLSPGERATLSCRASQSLSFSYLAWYQQKPGQAPRLLIYGASSRATGIPDRFSGSGSGTDFALTISRLEPEDFAVYYCQQYGTSPLTFGGGTKVDIKR
B15: hCDIFA-1 (antibody, V domains shown)
VH: QLQLQESGPGLVKPSETLSLICTVSGGSFSSSDFYWGWIRQPPGKGLEWIGNFYYNGSTSYNPSLKSRVTISVDTSKNQFSLKLRSVTAADTAVYYCARDYNFWNNSPNWFDPWGQGTLVTVSS
VL: EIVMTQSPATLSVSPGERATLSCRASQSISSNLAWYQQKLGQAPRLLIHGASTRATGIPARFSGSGSGTQFTLTISSLQSEDFAVYFCQQYNNWPPTFGGGTKVDIKR
B16: hCDIFA-55 (antibody, V domains shown)
VH: EVQLLESGAEVKKPGASVKVSCKASAYTFTTYGINWVRQAPGQGLEWMGWVSFSNGNTEYAQKFQGRVTMTTDTSTSTAFMELRSLRSDDTAVYYCASEKGELLSGCFDPWGQGTLVTVSS
VL: QSVLTQPPSVSAAPGQKVTISCSGSSSNIGNSLVSWYQHLPGTAPKLLISDNNERPSGIPDRFSGSKSGTSATLGITGLQTGDEADYYCGTWDSSLSVVVFGGGTKLTVLG
B17: hCDIFA-3 (antibody, V domains shown)
VH: EVQLVESGGGVVQPGRSLRLSCAASGFTFSSYAMHWVRQAPGKGLEWVAVISKDGDNKYYTDPLKGRFTISRDNSKNTLYLQMISLRGEDTAVYYCARDLNIWSGYYLRTINYYMDVWGKGTTVTVSS
VL: DIVMTQSPSFLSASVGDRVTITCRASQGIRNDLGWYQQKPGKAPKLLIYAASTLQSGVPSRFSGSGSGTEFTLTISSLQPEDFATYYCQQPGSHPPFGGGAKLEIKR
B18: hCDIFA-39 (antibody, V domains shown)
VH: QVQLQESGPGLVKPSETLSLTCTLSGGSISSDNYYWGWVRQPPGKGLEWIGSIYYSGSTYYNPSLKSRVFISVDMSKNQFSLKLSSVTAADTAVYYCARHTQGLGILRYFDWWTRPFDYWGQGTLVTVSS
VL: DIQMTQSPSSLSASVGDRVTITCRASQNINTYLSWYRQKPGKAPELLIYAASNLQSGVPSRFSGSGSGTDFTLTIHSLQPEDFATYYCQQSYTTLTFGGGTKVEIKR
B19: hCDIFA-53 (antibody, V domains shown)
VH: B18 VH with E6Q
VL: QSALTQPASVSGSPGQSITISCTGTSSDVGSYNLVSWYQQHPGKAPKLMIYEGSKRPSGVSNRFSGSKSGNTASLTISGLQAEDEADYYCCSYAGSSTLFGGGTKLTVLG
B20: hCDIFA-38 (antibody, V domains shown)
VH: QVQLVESGPALVKPTQTLTLTCTFSGFSLSSIGMCVSWIRQPPGKALEWLARIDWDDSKYYSPSLQARLAISKDTSKNQVVLTMTNVDPMDAGTYYCARTSATLTGPSRVFDYWGQGSLVTVSS
VL: DVVMTQSPATLSVSPGERATLSCRASQSVRFNLAWYQQKPGQAPRLLISGASTRATGIPARFSGSGSGTEFTLTISSLQSEDFAVYYCQQYNNWPPLTFGGGTKVEIKR

What was measured:
C. difficile toxin A = C. difficile toxin A (Clostridium difficile, UniProt P16154 1-2710); assay: cell-based or functional assay
[1] = target: T1, genetically modified and chemically inactivated C. difficile toxoid A (Clostridium difficile, UniProt P16154 2-2710); assay: ITC
T1 construct: also called TxdA; the toxoid

Binder	EC50 TcdA [RLU], toxin neutralization assay (TNA) on IMR90 cells (C. difficile toxin A) [RLU]	DH [1] [kcal/mol]	Kd [1] [nM]	Stoichiometry [1]
B1	1450			
B2	6300	-11.2	6	1.07
B3	3210			
B4	1490			
B5	1420			
B6	305000			
B7	1490			
B8	9			
B9	426000			
B10	12700			
B11	1640			
B12	673			
B13	22800			
B14	~147	-2.7	38	1.68
B15	5760	-17.2	8	1.45
B16	942000			
B17	199000			
B18	400			
B19	4100			
B20	10500			
